Data reported in patent US10711041B2, “Lyophilisate containing a cyclic peptide of formula X1-[sequence]-X2” (priority 2013, dated 2020).
Entries after “also recorded” stand apart in the source; their conditions may differ. Bridges are numbered along the chain shown (N, C = ends). Where no end group is shown, it is not given here.

What was measured:
[1] = molecular target: T1, amilorid-sensitive Sodium Ion Channel (ENaC) (Homo sapiens, UniProt P37088); experiment: Patch Clamp whole cell sodium current in deglycosylated (PNGase F) and untreated A549 cells; format: cell-based; settings: peptide 240 nM, Eh = −100 mV
T1 construct: Macroscopic Sodium Ion Currents were derived from human lung epithelian cells A549; endogenous in cells; host or cells: A549 human lung epithelial cells
T1 sequence (P37088 1-669): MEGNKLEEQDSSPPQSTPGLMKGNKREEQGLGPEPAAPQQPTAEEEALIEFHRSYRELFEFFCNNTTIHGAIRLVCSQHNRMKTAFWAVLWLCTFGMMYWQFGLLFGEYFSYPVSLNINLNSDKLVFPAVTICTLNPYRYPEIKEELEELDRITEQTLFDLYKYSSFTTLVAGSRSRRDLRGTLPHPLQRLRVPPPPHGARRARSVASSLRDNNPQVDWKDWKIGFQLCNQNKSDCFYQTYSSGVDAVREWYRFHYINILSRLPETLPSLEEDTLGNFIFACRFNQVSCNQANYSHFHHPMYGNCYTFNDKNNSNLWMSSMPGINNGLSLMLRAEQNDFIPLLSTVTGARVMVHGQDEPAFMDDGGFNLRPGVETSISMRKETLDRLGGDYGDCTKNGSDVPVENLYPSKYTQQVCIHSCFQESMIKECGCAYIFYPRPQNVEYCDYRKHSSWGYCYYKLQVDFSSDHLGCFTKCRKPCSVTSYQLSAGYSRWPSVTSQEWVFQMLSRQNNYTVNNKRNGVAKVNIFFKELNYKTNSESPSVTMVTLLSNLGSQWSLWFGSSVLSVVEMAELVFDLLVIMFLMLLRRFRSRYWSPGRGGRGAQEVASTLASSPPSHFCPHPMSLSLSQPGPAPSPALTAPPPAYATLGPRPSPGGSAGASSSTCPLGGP
T1 sequence (P51168 1-640 partner): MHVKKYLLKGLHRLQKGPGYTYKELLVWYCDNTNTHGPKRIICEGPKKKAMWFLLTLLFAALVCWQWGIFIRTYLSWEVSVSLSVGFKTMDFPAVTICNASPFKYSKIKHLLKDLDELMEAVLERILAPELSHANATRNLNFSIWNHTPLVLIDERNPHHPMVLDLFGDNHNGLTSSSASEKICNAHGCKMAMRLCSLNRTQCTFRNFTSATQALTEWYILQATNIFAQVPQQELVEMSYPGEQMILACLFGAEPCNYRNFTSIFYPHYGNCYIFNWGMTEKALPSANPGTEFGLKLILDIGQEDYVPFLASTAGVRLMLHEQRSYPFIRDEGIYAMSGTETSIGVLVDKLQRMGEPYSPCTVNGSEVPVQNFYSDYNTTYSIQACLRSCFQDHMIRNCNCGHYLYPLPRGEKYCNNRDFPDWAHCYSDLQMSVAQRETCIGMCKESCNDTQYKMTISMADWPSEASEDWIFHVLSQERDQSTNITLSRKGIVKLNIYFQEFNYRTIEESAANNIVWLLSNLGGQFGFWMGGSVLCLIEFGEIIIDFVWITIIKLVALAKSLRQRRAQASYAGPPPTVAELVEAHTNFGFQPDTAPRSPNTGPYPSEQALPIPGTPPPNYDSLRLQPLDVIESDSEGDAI
T1 sequence (P51170 1-649 partner): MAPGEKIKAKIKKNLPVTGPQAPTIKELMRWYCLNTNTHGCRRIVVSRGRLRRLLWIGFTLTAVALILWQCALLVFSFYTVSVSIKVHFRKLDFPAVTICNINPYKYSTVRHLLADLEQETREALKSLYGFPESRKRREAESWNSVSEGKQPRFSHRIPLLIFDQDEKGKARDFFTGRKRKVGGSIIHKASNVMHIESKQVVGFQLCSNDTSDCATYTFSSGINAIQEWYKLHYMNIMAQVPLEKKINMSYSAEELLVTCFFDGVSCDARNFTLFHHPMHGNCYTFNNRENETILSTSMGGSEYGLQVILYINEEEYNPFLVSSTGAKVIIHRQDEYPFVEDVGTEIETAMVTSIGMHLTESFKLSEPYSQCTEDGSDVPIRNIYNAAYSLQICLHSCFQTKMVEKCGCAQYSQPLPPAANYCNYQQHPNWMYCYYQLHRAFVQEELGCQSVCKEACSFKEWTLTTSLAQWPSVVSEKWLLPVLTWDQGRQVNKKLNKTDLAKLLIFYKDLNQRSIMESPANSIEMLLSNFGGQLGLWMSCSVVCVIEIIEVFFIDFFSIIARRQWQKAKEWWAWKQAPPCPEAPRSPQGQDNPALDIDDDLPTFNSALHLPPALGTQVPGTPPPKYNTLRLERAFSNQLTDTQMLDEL
Experimental: […] After control recordings, 240 nM of the peptide of amino acid sequence SEQ ID NO:1 was added to the bath solution. […] Whole cell currents were recorded at Eh=−100 mV. The concentration of the peptides of amino acid sequence SEQ ID NO:1 to SEQ ID NO:7 in the bath solution was 240 nM.

[2] = molecular target: T1, amilorid-sensitive Sodium Ion Channel (ENaC); experiment: Patch-clamp whole cell, amilorid-sensitive sodium ion current in A549 cells; format: cell-based
Experimental: Macroscopic Sodium Ion Currents were derived from human lung epithelian cells A549 in the “whole cell” configuration by means of the “Patch-clamp” technique (Hamill et al, Pflugers Arch. 1981, 391(2):85-100, 1981). For the currents in the “whole cell” configuration the following bath- and electrode solutions were used:
Bath solution: 135 mM sodium methansulfonate, 10 mM NaCl, 2.7 mM KCl, 1.8 mM CaCl2, 2 mM MgCl2, 5.5 mM glucose, and 10 mM HEPES, pH 7.4.
Electrode solution: 120 mM potassium methansulfonate, 15 mM KCl, 6 mM NaCl, 1 mM Mg2ATP, 2 mM Na3ATP, 10 mM HEPES, and 0.5 mM EGTA (pH 7.2).
Cover glasses with thereon cultivated cells were transferred into a 1 ml containing trial bath, fixed onto the microscope table (Axiovert 100, 400-fold enlargement) and the cells were superfunded with the above described bath solution. Subsequent from an appropriate cell (sticking on the cover glass) the current was deduced. […] On receipt of a “Gigaohm-Seal” a defined membrane hold potential was created via a preamplifier (CV-4 Headstag, Axon Instruments) and amplifier (Axopatch 1D, Axon Instr.) and the current which thereby flows through the ion channels is measured.
That protocol was done before (control) and after addition of the cyclic proteins. The thus obtained currents were recorded and analyzed by means of the program PCLAMP 6.0. […]

`C[C@@H]1NC(=O)CNC(=O)[C@H](CCC(=O)O)NC(=O)[C@@H]2CCCN2C(=O)[C@H]([C@@H](C)O)NC(=O)[C@H](CCC(=O)O)NC(=O)[C@H](CCCNC(=N)N)NC(=O)[C@H](CCC(N)=O)NC(=O)CNC(=O)[C@@H](N)CSSC[C@@H](C(=O)O)NC(=O)[C@H](Cc2ccc(O)cc2)NC(=O)[C@H](Cc2c[nH]c3ccccc23)NC(=O)[C@@H]2CCCN2C(=O)[C@H](CCCCN)NC(=O)[C@H](C)NC(=O)[C@H](CCC(=O)O)NC1=O` [SEQ ID NO: 1] was tested, and the “whole cell sodium current” value ([1]; no pretreatment with PNGase F) was 1073.3 ± 15.1 pA and the “whole cell sodium current” value ([1]; pre-treatment with PNGase F) was 19.6 pA (n = 3).

“Cyclo(CGQREAPAGAAAKPWYC) (disulfide 1-17) [SEQ ID NO: 7, reference compound]” was tested, and the “biological activity (in words)” value ([2]; amilorid-sensitive sodium current) was “biologically inactive; also recorded: not active”, the “EC50 (activity on cellular amilorid-sensitive sodium ion current)” value ([2]; whole cell patch clamp) was “no activity” and the “whole cell sodium current” value ([1]; no pretreatment with PNGase F) was “No activity”. For the same compound, the “whole cell sodium current” value ([1]; no pretreatment with PNGase F, listed as SEQ ID NO:7) was “no activity” and the “whole cell sodium current” value ([1]; pre-treatment with PNGase F) was “No activity”.
